Several values for one entry are separate records, joined by “and”; a condition that tells them apart may be missing. Equal values may be shown once.
Assays:
[1] = target: M. fascicularis KLB and human FGFR1c co-expressed on HEK293/MfKLB/hFGFR1c/SRE-Luc cells (M. fascicularis; human, UniProt A0A2K5WB58 1-1044); test: cell-based or functional assay
[2] = target: T1, extracellular domain of human FGFR1c expressed with C-terminal V5 and hexahistidine tags (human, UniProt P11362 22-376); test: SPR, mAb captured, 25 C
T1 construct: also called hFGFR1c-V5-6His
T1 sequence: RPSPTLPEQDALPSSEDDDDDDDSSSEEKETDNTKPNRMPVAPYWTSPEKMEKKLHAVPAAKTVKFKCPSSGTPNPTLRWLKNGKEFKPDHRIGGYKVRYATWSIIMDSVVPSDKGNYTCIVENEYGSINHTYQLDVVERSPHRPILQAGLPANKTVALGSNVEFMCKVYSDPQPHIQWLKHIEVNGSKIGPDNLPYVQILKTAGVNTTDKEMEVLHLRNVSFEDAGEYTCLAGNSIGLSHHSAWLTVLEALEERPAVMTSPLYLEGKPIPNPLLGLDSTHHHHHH
Method: (§1) Equilibrium dissociation constants (KD values) for human KLB or human FGFR1c binding to purified anti-KLB/FGFR1c monoclonal antibodies were determined using a real-time surface plasmon resonance biosensor using a Biacore T-200 or 4000 instrument. The Biacore sensor surface was derivatized by amine coupling with either a polyclonal rabbit anti-mouse antibody (GE, # BR-1008-38) or with a monoclonal mouse anti-human Fc antibody (GE, # BR-1008-39) to capture anti-KLB/FGFR1c monoclonal antibodies expressed with either a mouse Fc or a human Fc, respectively. All Biacore binding studies were performed in a buffer composed of 0.01M HEPES pH 7.4, 0.15M NaCl, 3mM EDTA, 0.05% v/v Surfactant P20 (HBST running buffer). […] Association of hKLB-HA-6His or hFGFR1c-V5-6His to the captured monoclonal antibody was monitored for 3.5 to 4 minutes and the dissociation of hKLB-HA-6His or hFGFR1c-V5-6His in HBST running buffer was monitored for 8-12 minutes. All the binding kinetics experiments were performed at 25° C. or 37° C. Kinetic association (kₐ) and dissociation (kd) rate constants were determined by fitting the real-time sensorgrams to a 1:1 binding model using Scrubber 2.0c curve fitting software. Binding dissociation equilibrium constants (KD) and dissociative half-lives (t½) were calculated from the kinetic rate constants as: […]

[3] = target: T1, extracellular domain of human FGFR1c …; test: SPR, mAb captured, 37 C
Method: as §1

[4] = target: T2, full-length human FGFR1c on HEK293/hFGFR1c/SRE-luc cells (human, UniProt P11362 22-822); test: FACS on stable HEK293 cells
T2 construct: amino acids 1-733 of NP_075593
Method: To determine binding specificity of the monoclonal anti-KLB/FGFR1c antibodies, the antibodies were tested in a fluorescence-activated cell sorting (FACS) binding assay to cell lines expressing human FGFR1c, human KLB, and both human FGFR1c and human KLB. HEK293 cell lines were generated that stably express full-length human FGFR1c (hFGFR1c; SEQ ID NO:433) or full-length human KLB (hKLB; SEQ ID NO:434) or both human FGFR1c and human KLB, along with a luciferase reporter [SRE (serum response element)-luciferase, SA Bioscience, #CLS-010L]. The resulting cell lines, referred to as HEK293/hFGFR1c/SRE-luc, HEK293/hKLB/SRE-luc, and HEK293/hKLB/hFGFR1c/SRE-luc, respectively, were maintained in DMEM supplemented with 10% FBS, NEAA, penicillin/streptomycin, 1 μg/mL puromycin and […] hygromycin B, 1 μg/mL puromycin and 500 μg/mL G418, or all three antibiotics.
For the FACS analysis, HEK293 parental, HEK293/hFGFR1c/SRE-luc, HEK293/hKLB/SRE-luc, and HEK293/hKLB/hFGFR1c/SRE-luc cells were dissociated and plated onto 96-well v-bottom plates at 5 x 10⁵ cells/well in PBS containing 1% FBS. […] Cells were filtered and subsequently analyzed on a Hypercyte Flow Cytometer (Intellicyt Corp.). Unstained and secondary antibody alone controls were also tested for binding to all cell lines. The results were analyzed using FlowJo version 9.52 software and geometric mean (Geom. Mean) of fluorescence for viable cells was determined. Geom. mean of fluorescence for each antibody was then normalized to Geom. mean of unstained cells to obtain relative binding of antibody (binding ratios) per each cell type.

[5] = target: mouse KLB and mouse FGFR1c co-expressed on HEK293/mKLB/mFGFR1c/SRE-Luc cells (mouse); test: cell-based or functional assay
[6] = target: T3, extracellular domain of human KLB expressed with C-terminal HA and hexahistidine tags (human, UniProt Q86Z14 1-996); test: SPR, mAb captured, 25 C
T3 construct: also called hKLB-HA-6His; hKLB-HA-6his
T3 sequence: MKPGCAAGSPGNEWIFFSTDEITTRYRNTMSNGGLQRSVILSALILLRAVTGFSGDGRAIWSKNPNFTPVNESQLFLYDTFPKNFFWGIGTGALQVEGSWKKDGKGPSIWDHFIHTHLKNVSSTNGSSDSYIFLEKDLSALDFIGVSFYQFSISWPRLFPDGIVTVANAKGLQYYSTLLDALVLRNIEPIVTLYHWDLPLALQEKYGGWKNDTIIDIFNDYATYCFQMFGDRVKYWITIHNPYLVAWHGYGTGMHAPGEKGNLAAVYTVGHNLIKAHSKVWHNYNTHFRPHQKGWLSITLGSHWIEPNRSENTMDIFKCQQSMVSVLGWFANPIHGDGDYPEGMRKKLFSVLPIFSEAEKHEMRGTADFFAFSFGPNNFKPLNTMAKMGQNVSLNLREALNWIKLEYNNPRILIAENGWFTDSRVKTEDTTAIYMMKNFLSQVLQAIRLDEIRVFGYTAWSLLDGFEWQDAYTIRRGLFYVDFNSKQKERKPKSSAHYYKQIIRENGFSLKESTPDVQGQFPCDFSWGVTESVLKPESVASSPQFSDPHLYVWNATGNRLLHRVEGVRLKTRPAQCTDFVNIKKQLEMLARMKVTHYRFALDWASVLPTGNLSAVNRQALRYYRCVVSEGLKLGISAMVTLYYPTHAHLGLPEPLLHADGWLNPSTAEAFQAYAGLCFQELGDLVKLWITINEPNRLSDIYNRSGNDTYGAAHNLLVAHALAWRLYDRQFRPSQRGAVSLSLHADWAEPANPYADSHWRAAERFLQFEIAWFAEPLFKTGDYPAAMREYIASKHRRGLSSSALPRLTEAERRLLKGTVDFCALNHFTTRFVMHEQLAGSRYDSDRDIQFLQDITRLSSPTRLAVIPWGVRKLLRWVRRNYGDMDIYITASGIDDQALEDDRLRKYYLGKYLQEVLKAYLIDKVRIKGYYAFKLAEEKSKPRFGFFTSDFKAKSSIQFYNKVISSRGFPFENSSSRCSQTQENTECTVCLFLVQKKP
Method: as §1

[7] = target: cell-surface human FGFR1c (amino acids 1-731 of NP_075594) with cell-surface human KLB on … (human, UniProt P11362 22-822); test: cell-based or functional assay
[8] = target: human KLB and human FGFR1c co-expressed on HEK293/hKLB/hFGFR1c/SRE-luc cells (human, UniProt Q86Z14 1-1044; P11362 22-822); test: cell-based or functional assay
[9] = target: T3, extracellular domain of human KLB …; test: SPR, mAb captured, 37 C
Method: as §1

Sequence of M. fascicularis KLB and human FGFR1c co-expressed on HEK293/MfKLB/hFGFR1c/SRE-Luc cells (chain, as listed by the source, chain 1 of 2): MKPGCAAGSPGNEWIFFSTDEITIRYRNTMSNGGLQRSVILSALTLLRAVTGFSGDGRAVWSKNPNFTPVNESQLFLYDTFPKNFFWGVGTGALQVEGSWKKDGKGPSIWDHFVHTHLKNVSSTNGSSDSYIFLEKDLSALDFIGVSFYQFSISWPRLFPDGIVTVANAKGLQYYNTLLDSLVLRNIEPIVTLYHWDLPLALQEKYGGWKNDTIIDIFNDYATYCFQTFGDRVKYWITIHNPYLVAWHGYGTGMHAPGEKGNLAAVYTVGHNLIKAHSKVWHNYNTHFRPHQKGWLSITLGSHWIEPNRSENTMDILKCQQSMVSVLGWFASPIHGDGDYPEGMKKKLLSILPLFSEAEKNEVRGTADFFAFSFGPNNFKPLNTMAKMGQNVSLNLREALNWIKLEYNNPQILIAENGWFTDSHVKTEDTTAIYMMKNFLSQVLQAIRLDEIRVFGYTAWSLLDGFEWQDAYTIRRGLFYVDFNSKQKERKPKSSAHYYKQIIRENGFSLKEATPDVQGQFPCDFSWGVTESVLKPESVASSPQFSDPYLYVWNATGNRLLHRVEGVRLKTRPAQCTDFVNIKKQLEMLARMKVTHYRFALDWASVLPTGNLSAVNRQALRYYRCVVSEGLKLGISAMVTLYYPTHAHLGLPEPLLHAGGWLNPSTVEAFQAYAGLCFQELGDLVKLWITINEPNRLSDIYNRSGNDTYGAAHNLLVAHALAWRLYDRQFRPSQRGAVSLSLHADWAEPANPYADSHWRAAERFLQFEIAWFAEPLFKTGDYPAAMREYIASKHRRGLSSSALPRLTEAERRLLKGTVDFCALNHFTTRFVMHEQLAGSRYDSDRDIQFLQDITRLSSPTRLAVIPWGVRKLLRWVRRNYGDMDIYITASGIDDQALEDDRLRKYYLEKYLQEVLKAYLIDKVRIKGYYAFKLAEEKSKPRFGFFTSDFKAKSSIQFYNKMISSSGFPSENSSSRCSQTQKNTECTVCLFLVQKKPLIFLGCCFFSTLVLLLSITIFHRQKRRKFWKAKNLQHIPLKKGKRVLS
Sequence of M. fascicularis KLB and human FGFR1c co-expressed on HEK293/MfKLB/hFGFR1c/SRE-Luc cells (chain, as listed by the source, chain 2 of 2): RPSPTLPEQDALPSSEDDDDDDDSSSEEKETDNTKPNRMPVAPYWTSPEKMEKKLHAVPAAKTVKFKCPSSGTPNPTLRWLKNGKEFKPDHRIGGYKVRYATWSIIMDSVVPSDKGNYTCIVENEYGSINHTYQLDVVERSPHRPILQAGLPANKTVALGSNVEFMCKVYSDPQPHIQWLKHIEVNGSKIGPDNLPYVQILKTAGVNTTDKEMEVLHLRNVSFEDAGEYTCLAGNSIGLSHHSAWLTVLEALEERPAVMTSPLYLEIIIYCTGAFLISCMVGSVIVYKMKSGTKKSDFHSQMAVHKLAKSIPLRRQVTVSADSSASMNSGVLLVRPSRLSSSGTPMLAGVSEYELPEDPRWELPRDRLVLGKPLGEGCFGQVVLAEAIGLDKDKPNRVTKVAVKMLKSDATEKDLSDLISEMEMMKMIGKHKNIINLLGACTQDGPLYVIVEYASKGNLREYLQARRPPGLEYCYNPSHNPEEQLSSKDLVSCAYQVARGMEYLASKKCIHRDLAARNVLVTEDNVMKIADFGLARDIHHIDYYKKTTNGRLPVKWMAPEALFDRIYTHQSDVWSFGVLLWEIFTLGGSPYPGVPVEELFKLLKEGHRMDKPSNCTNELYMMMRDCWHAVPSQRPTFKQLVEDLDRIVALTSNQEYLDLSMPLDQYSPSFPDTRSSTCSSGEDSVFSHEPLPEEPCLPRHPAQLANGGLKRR
Sequence of cell-surface human FGFR1c (amino acids 1-731 of NP_075594) with cell-surface human KLB on … (P11362 22-822): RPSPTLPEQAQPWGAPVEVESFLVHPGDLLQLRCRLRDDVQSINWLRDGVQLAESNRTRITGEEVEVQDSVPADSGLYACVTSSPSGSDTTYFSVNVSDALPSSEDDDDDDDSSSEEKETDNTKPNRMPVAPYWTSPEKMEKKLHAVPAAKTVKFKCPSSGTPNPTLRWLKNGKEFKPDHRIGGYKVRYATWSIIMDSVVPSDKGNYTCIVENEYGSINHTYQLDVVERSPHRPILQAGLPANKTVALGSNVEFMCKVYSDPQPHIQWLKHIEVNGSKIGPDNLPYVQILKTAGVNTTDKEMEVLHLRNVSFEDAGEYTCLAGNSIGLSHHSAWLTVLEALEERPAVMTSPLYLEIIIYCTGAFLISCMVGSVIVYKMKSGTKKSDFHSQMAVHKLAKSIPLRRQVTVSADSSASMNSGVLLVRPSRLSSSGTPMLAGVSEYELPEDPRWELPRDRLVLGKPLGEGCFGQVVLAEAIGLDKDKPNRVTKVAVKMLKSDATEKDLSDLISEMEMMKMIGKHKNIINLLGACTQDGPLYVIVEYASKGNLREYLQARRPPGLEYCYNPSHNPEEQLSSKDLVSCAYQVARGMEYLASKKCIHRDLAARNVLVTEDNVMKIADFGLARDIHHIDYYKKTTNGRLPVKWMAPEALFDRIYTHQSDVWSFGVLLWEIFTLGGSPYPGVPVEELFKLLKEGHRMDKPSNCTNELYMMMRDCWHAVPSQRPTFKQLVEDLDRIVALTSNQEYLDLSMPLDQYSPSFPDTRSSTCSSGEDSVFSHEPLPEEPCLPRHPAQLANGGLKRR
T2 sequence (P11362 other isoform, or with tags, fused parts or gaps limits assumed): as the sequence (chain, as listed by the source, chain 2 of 2) above

B1: H2bM8833N (antibody, V domains shown)
VH: QVQLVESGGGVVQPGRSLRLSCAASGFTFSRYGIHWVRQAPGKGLEWVAVIWYDGSNKYYADSLKGRFTISRDNSKNTLYLQMNSLRAEDTAVYYCARDQGNYIDYWGQGTLVTVSS
VL: AIQMTQSPSSLSASVGDRVTITCRTSQGIRNDLGWYQQKPGKVPKLLIYAASSLQSGVPSRFSGSGSGTDFTLTISSLQPEDFATYYCLQDYNYPFTFGPGTKVDIK
notes: mouse IgG2 Fc (H2bM prefix)
In the case of B1, the “IC50, inhibition of 10 nM mfFGF21” value [1] is reported as 99 pM, the “Maximum Inhibition (%) of 10 nM mfFGF21” value [1] is reported as 16% and the “180 nM hFGFR1c-V5-6His Bind (RU)” value [2] is reported as 1.9 RU. The “180 nM hFGFR1c-V5-6His Bind (RU)” value [3] was 1.4 RU and the “binding ratio to unstained cells” value [4] was 9 fold.

B2: mouse FGF21 (ligand, UniProt Q9JJN1 29-210, looked up)
chain: AYPIPDSSPLLQFGGQVRQRYLYTDDDQDTEAHLEIREDGTVVGAAHRSPESLLELKALKPGVIQILGVKASRFLCQQPDGALYGSPHFDPEACSFRELLLEDGYNVYQSEAHGLPLRLPQKDSPNQDATSWGPVRFLPMPGLLHEPQDQAGFLPPEPPDVGSSDPLSMVEPLQGRSPSYAS
For B2, the “EC50, SRE-luc activation by ligand” value [5] was 330 pM and 370 pM.

B3: scFv8092N-IgG4mutFc x scFv8900P-IgG4mutFc* Heterodimer (bispecific antibody)
chain 1: not shown
chain 2: QVQLVESGGGVVQPGRSLRLSCVASGFTFSSYGMHWVRQAPGKGLEWVAVISFDGSNKYYADSVKGRFTISRDNSKNTLYLQMNSLRPADTAVYYCAKDRSNYYYFGMDVWGQGTTVTVSSGGGGSGGGGSGGGGSDIVMTQTPLSLPVTPGEPASISCRSSQSLLDSDDGNTYLDWYLQKPGQSPQLLIYTLSYRASGVPDRFSGSGSGTDFTLKISRVEAEDVGVYYCMQRIEFPLTFGGGTKVEIKGGGGSGGGGSGGGGSESKYGPPCPPCPAPEFLGGPSVFLFPPKPKDTLMISRTPEVTCVVVDVSQEDPEVQFNWYVDGVEVHNAKTKPREEQFNSTYRVVSVLTVLHQDWLNGKEYKCKVSNKGLPSSIEKTISKAKGQPREPQVYTLPPSQEEMTKNQVSLTCLVKGFYPSDIAVEWESNGQPENNYKTTPPVLDSDGSFFLYSRLTVDKSRWQEGNVFSCSVMHEALHNRFTQKSLSLSPGK
notes: also called 8900P ScFv-Fc*/8092N ScFv-Fc; H4H8900P ScFv-Fc*/H4H8092N ScFv-Fc
With B3 the “180 nM hFGFR1c-V5-6His Bind (RU)” value [2] was 0.9 RU, the binding result [2] was “no binding (tested: 180 nM)” and the “20 nM hKLB-HA-6His Bind (RU)” value [6] was 27.3 RU. The Kd [6] was 318 pM, the koff [6] was 3.94e-05 s⁻¹ and the kon [6] was 124000 M⁻¹ s⁻¹. For the same binder, the t1/2 [6] was 4.89 h, the “% Activation” value [7] was 1.6% and the “EC50, SRE-luc activation” value [7] was greater than 5000 pM. The “EC50, SRE-luc activation without ligand” value [8] was 280 pM, the “IC50, inhibition of 1 nM 6His-hFGF21” value [8] was 390 pM and the “Maximum Activation (%)” value [8] was 0.5%. The “Maximum Inhibition (%)” value [8] was 90%, the “180 nM hFGFR1c-V5-6His Bind (RU)” value [3] was 0.4 RU and the “20 nM hKLB-HA-6His Bind (RU)” value [9] was 86.7 RU. It also gave a Kd [9] of 1300 pM, a koff [9] of 0.000178 s⁻¹ and a kon [9] of 137000 M⁻¹ s⁻¹. The t1/2 [9] was 1.08 h.

B4: H2bM8096N (antibody, V domains shown)
VH: QVQLVESGGGVVQPGRSLRLSCAASGFTFSSYGLHWVRQAPGKGLEWVAVIWHDGSHKYYADSVKGRFTISRDNSKNTVYLQMNSLRAEDTAVYYCARDGIPVAEDYYLYGMDVWGQGTTVTVSS
VL: EIVLTQSPGTLSLSPGERATLSCRASQSVDSSYLAWYHQKPGQAPRLLIYGASSRATGIPDRFSGSGSGTDFTLTISRLEPEDFAVYYCQQYGSSRTFGQGTKVEIK
notes: mouse IgG2 Fc (H2bM prefix)
With B4 the “180 nM hFGFR1c-V5-6His Bind (RU)” value [2] was -0.7 RU and the “180 nM hFGFR1c-V5-6His Bind (RU)” value [3] was -1.2 RU.

Reference: US20170174769A1 (Regeneron, published 2017)
